Assay results reported in patent US20060177432.

Each substance was assayed on T1, 6xHis-PEBP (recombinant mouse PEBP with a 6xHis-tag at the N-terminus).
T1 sequence: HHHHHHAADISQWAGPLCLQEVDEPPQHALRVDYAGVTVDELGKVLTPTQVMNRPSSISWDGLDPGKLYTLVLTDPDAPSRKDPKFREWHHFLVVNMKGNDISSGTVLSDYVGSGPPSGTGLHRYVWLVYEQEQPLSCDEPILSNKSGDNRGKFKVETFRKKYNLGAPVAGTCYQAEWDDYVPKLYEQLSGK

Chain of tissue plasminogen activator (P00750 36-562): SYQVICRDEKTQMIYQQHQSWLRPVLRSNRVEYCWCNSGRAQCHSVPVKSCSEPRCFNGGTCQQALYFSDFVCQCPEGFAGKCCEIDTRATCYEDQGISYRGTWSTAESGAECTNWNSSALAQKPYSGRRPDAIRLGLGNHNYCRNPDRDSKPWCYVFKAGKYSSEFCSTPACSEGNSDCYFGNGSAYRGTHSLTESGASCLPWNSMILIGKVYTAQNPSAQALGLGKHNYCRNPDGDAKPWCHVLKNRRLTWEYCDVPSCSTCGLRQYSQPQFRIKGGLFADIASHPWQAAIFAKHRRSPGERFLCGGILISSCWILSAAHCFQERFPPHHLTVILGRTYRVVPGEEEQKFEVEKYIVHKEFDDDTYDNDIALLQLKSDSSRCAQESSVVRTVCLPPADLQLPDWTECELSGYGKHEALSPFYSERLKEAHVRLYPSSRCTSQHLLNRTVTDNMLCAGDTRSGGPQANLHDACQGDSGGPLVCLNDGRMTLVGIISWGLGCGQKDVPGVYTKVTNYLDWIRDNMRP
Chain of trypsin (P00760 24-246): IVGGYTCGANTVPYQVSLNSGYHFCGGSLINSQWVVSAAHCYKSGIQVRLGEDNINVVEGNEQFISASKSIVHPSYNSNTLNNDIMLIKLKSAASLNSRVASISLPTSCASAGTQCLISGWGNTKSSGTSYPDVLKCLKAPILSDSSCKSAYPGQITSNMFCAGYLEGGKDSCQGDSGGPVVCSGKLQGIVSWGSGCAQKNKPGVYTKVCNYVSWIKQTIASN
Chain of pancreatic elastase (P00772 27-266): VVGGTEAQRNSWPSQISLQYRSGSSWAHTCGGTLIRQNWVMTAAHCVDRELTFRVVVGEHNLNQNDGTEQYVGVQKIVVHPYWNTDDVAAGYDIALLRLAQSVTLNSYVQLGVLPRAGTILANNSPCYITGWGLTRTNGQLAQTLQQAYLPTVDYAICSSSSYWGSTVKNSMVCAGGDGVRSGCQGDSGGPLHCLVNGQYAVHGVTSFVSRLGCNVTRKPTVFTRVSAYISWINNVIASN

Substance	amidolytic activity (chromogenic substrate, 405 nm)
trypsin	The amidolytic activities of trypsin (0.005 pmol) ... were not affected
pancreatic elastase	The amidolytic activities of ... pancreatic elastase (4 pmol) were not affected
tissue plasminogen activator	The amidolytic activities of ... tissue plasminogen activator (0.5 pmol) ... were not affected
